Among the data in patent US20020128175A1 are stoichiometry (molecules of peptide per LDL) (molecules of peptide per LDL) values, retold here.

The test has as its target low density lipoprotein (LDL) from human plasma (human) (UniProt P04114). Briefly: agarose gel, stained bands excised and counted with 125I-labeled peptide.

B1: Ac-hE18A-NH2 (end protected analog of hApoE[141-150]-18A) (peptide)
peptide: Ac-LRKLRKRLLRDWLKAFYDKVAEKLKEAF-NH2
modifications: also: 125I-labelled where stoichiometry was determined
B1 came in with a stoichiometry (molecules of peptide per LDL) (molecules of peptide per LDL) of 30.
